According to the supplement of paper PMC10598134:
± gives the standard deviation.

Assay: collision cross section of modified peptide (TIMS, N2, iRT-aligned); higher = larger / more extended gas-phase ion
Method in brief: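 Collision cross section values rest on the Mason-Schamp equation applied to calibrated, run-aligned mobility data from synthetic peptides. Mobility (1/K0) was calibrated with three reference ions and aligned per run to the median iRT peptide deviation, and 1–3 technical replicates of the most abundant feature per charge state were averaged. Data came from a timsTOF Pro/HT in dda-PASEF mode (nitrogen, ~2.4 mbar) after a 120-min nanoflow C18 gradient at 60 °C.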

[1] = charge state: 2, modification: Propionyl
[2] = charge state: 2, modification: Succinyl
[3] = charge state: 2, modification: Trimethyl (K)
[4] = charge state: 3, modification: Trimethyl (K)
[5] = charge state: 2, modification: hydroxyisobutyryl
[6] = charge state: 2, modification: Acetyl (K)
[7] = charge state: 3, modification: Acetyl (K)
[8] = charge state: 3, modification: Biotin
[9] = charge state: 2, modification: Butyryl
[10] = charge state: 3, modification: Butyryl
[11] = charge state: 2, modification: Crotonyl
[12] = charge state: 2, modification: Dimethyl (K)
[13] = charge state: 3, modification: Dimethyl (K)
[14] = charge state: 2, modification: Formyl
[15] = charge state: 2, modification: Glutarylation
[16] = charge state: 3, modification: Glutarylation
[17] = charge state: 2, modification: GlyGly (K)
[18] = charge state: 3, modification: GlyGly (K)
[19] = charge state: 2, modification: Malonyl
[20] = charge state: 2, modification: Methyl (K)
[21] = charge state: 3, modification: Methyl (K)
[22] = charge state: 2, modification: Nitro (Y)
[23] = charge state: 2, modification: Phospho (Y)
[24] = charge state: 2, modification: Biotin

LDEKENLSAK [_LDEK(Propionyl)ENLSAK_]
collision cross section [1]: 369.99 ± 0.94 Å²

LDEKENLSAK [_LDEK(Succinyl)ENLSAK_]
collision cross section [2]: 369.34 ± 0.74 Å²

LDEKENLSAK [_LDEK(Trimethyl (K))ENLSAK_]
collision cross section [3]: 376.2 ± 0.61 Å² | collision cross section [4]: 441.92 ± 3.4 Å²

LDEKENLSAK [_LDEK(hydroxyisobutyryl)ENLSAK_]
collision cross section [5]: 373.33 ± 0.28 Å²

LDHLAEKFR [_LDHLAEK(Acetyl (K))FR_]
collision cross section [6]: 371.59 ± 0.95 Å² | collision cross section [7]: 438.53 ± 3.2 Å²

LDHLAEKFR [_LDHLAEK(Biotin)FR_]
collision cross section [8]: 452.58 Å²

LDHLAEKFR [_LDHLAEK(Butyryl)FR_]
collision cross section [9]: 377.54 ± 1.3 Å² | collision cross section [10]: 440.5 ± 3.8 Å²

LDHLAEKFR [_LDHLAEK(Crotonyl)FR_]
collision cross section [11]: 378.01 ± 0.89 Å² | collision cross section (charge state: 3, modification: Crotonyl): 440.09 ± 1.3 Å²

LDHLAEKFR [_LDHLAEK(Dimethyl (K))FR_]
collision cross section [12]: 368.82 ± 0.36 Å² | collision cross section [13]: 433.76 ± 2.1 Å²

LDHLAEKFR [_LDHLAEK(Formyl)FR_]
collision cross section [14]: 364.92 ± 0.89 Å² | collision cross section (charge state: 3, modification: Formyl): 435.6 ± 2.1 Å²

LDHLAEKFR [_LDHLAEK(Gluratylation)FR_]
collision cross section [15]: 375.69 ± 0.099 Å² | collision cross section [16]: 446.6 ± 1.7 Å²

LDHLAEKFR [_LDHLAEK(GlyGly (K))FR_]
collision cross section [17]: 374.05 ± 1.1 Å² | collision cross section [18]: 449.01 ± 1.6 Å²

LDHLAEKFR [_LDHLAEK(Malonyl)FR_]
collision cross section [19]: 366.99 ± 1.7 Å²

LDHLAEKFR [_LDHLAEK(Methyl (K))FR_]
collision cross section [20]: 368.51 ± 0.5 Å² | collision cross section [21]: 450.7 ± 4.8 Å²

LDHLAEKFR [_LDHLAEK(Propionyl)FR_]
collision cross section (charge state: 3, modification: Propionyl): 442.11 ± 0.59 Å²

LDHLAEKFR [_LDHLAEK(Succinyl)FR_]
collision cross section [2]: 369.4 ± 0.74 Å² | collision cross section (charge state: 3, modification: Succinyl): 444.17 ± 3.4 Å²

LDHLAEKFR [_LDHLAEK(Trimethyl (K))FR_]
collision cross section [4]: 436.32 ± 0.025 Å²

LDHLAEKFR [_LDHLAEK(hydroxyisobutyryl)FR_]
collision cross section [5]: 375.94 ± 0.8 Å² | collision cross section (charge state: 3, modification: hydroxyisobutyryl): 444.1 ± 2 Å²

LDINTNTYTSQDLK [_LDINTNTYTS(HexNAc (ST))QDLK_]
collision cross section (charge state: 2, modification: HexNAc (ST)): 444.16 ± 0.035 Å²

LDLSSLAYSGK [_LDLSSLAY(Nitro (Y))SGK_]
collision cross section [22]: 385.74 ± 0.17 Å²

LDLSSLAYSGK [_LDLSSLAY(Phospho (Y))SGK_]
collision cross section [23]: 374.73 ± 0.68 Å²

LDYSDFQIVK [_LDY(Nitro (Y))SDFQIVK_]
collision cross section [22]: 369.5 ± 0.55 Å²

LDYSDFQIVK [_LDY(Phospho (Y))SDFQIVK_]
collision cross section [23]: 374.72 ± 0.79 Å²

LEENHYNTYISK [_LEENHYNTY(Nitro (Y))ISK_]
collision cross section [22]: 425.11 ± 1.1 Å² | collision cross section (charge state: 3, modification: Nitro (Y)): 478.71 ± 0.24 Å²

LEENHYNTYISK [_LEENHYNTY(Phospho (Y))ISK_]
collision cross section [23]: 422.15 ± 0.06 Å² | collision cross section (charge state: 3, modification: Phospho (Y)): 477.33 ± 1 Å²

LEEVTGKLQVAR [_LEEVTGK(Acetyl (K))LQVAR_]
collision cross section [6]: 391.97 ± 0.61 Å² | collision cross section [7]: 467.89 Å²

LEEVTGKLQVAR [_LEEVTGK(Biotin)LQVAR_]
collision cross section [24]: 414.01 ± 0.23 Å² | collision cross section [8]: 494.02 ± 0.34 Å²

LEEVTGKLQVAR [_LEEVTGK(Butyryl)LQVAR_]
collision cross section [9]: 398.95 ± 0.23 Å² | collision cross section [10]: 467.68 Å²

LEEVTGKLQVAR [_LEEVTGK(Crotonyl)LQVAR_]
collision cross section [11]: 398.71 ± 0.79 Å²

LEEVTGKLQVAR [_LEEVTGK(Dimethyl (K))LQVAR_]
collision cross section [12]: 394.61 ± 0.25 Å² | collision cross section [13]: 471.08 ± 2.1 Å²

LEEVTGKLQVAR [_LEEVTGK(Formyl)LQVAR_]
collision cross section [14]: 388.92 ± 0.55 Å²

LEEVTGKLQVAR [_LEEVTGK(Gluratylation)LQVAR_]
collision cross section [15]: 400.05 ± 0.12 Å² | collision cross section [16]: 468.97 Å²

LEEVTGKLQVAR [_LEEVTGK(GlyGly (K))LQVAR_]
collision cross section [17]: 407.08 ± 0.86 Å² | collision cross section [18]: 463.74 ± 1.1 Å²

LEEVTGKLQVAR [_LEEVTGK(Malonyl)LQVAR_]
collision cross section [19]: 393.19 ± 0.021 Å²

LEEVTGKLQVAR [_LEEVTGK(Methyl (K))LQVAR_]
collision cross section [20]: 393.19 ± 1.7 Å² | collision cross section [21]: 474.94 ± 3.5 Å²

LEEVTGKLQVAR [_LEEVTGK(Propionyl)LQVAR_]
collision cross section [1]: 394.4 ± 1.3 Å²

LEEVTGKLQVAR [_LEEVTGK(Succinyl)LQVAR_]
collision cross section [2]: 394.87 ± 0.77 Å²

LEEVTGKLQVAR [_LEEVTGK(Trimethyl (K))LQVAR_]
collision cross section [3]: 402.01 ± 1.1 Å² | collision cross section [4]: 471.9 ± 1.5 Å²

LEEVTGKLQVAR [_LEEVTGK(hydroxyisobutyryl)LQVAR_]
collision cross section [5]: 399.92 ± 0.3 Å²

LEKDYQPGITFIVVQK [_LEKDYQP(Hydroxyproline)GITFIVVQK_]
collision cross section (charge state: 2, modification: Hydroxyproline): 457.03 ± 0.32 Å² | collision cross section (charge state: 3, modification: Hydroxyproline): 487.95 ± 1.3 Å²

LEKTIDDLEEK [_LEK(Acetyl (K))TIDDLEEK_]
collision cross section [6]: 403.37 ± 1 Å²

LEKTIDDLEEK [_LEK(Biotin)TIDDLEEK_]
collision cross section [24]: 422.95 ± 1.4 Å²

LEKTIDDLEEK [_LEK(Butyryl)TIDDLEEK_]
collision cross section [9]: 409.44 ± 0.57 Å²

LEKTIDDLEEK [_LEK(Crotonyl)TIDDLEEK_]
collision cross section [11]: 409.2 ± 1.1 Å²

LEKTIDDLEEK [_LEK(Dimethyl (K))TIDDLEEK_]
collision cross section [12]: 401.15 ± 1.1 Å² | collision cross section [13]: 461.19 ± 2.1 Å²

LEKTIDDLEEK [_LEK(Formyl)TIDDLEEK_]
collision cross section [14]: 399.8 ± 0.55 Å²

LEKTIDDLEEK [_LEK(Gluratylation)TIDDLEEK_]
collision cross section [15]: 410.17 ± 1.1 Å²

LEKTIDDLEEK [_LEK(GlyGly (K))TIDDLEEK_]
collision cross section [17]: 403.14 ± 0.36 Å² | collision cross section [18]: 473.69 ± 1.1 Å²

LEKTIDDLEEK [_LEK(Malonyl)TIDDLEEK_]
collision cross section [19]: 405.85 ± 0.59 Å²

LEKTIDDLEEK [_LEK(Methyl (K))TIDDLEEK_]
collision cross section [20]: 405.66 ± 1.3 Å² | collision cross section [21]: 473.34 ± 3.6 Å²

LEKTIDDLEEK [_LEK(Propionyl)TIDDLEEK_]
collision cross section [1]: 406.15 ± 0.38 Å²

LEKTIDDLEEK [_LEK(Succinyl)TIDDLEEK_]
collision cross section [2]: 408.25 ± 0.55 Å²

LEKTIDDLEEK [_LEK(Trimethyl (K))TIDDLEEK_]
collision cross section [3]: 402.76 ± 0.62 Å² | collision cross section [4]: 468.63 ± 1.5 Å²

LEKTIDDLEEK [_LEK(hydroxyisobutyryl)TIDDLEEK_]
collision cross section [5]: 411.13 ± 0.32 Å²

LELAQYR [_LELAQY(Nitro (Y))R_]
collision cross section [22]: 326.89 ± 0.56 Å²

LELAQYR [_LELAQY(Phospho (Y))R_]
collision cross section [23]: 329.12 ± 0.75 Å²

LEQVEKELLR [_LEQVEK(Acetyl (K))ELLR_]
collision cross section [6]: 385.81 ± 0.48 Å²

LEQVEKELLR [_LEQVEK(Biotin)ELLR_]
collision cross section [24]: 410.78 Å²

LEQVEKELLR [_LEQVEK(Butyryl)ELLR_]
collision cross section [9]: 391.61 ± 1.3 Å²

LEQVEKELLR [_LEQVEK(Crotonyl)ELLR_]
collision cross section [11]: 389.19 ± 0.8 Å²
